The target of assay [1] is USP7 (endogenous) (UniProt Q93009). Kind of assay: APEX2-Gal9 proximity biotinylation, SILAC LC-MS/MS, GPN; first of three experiments.
For assay [2] the target is unchanged. Kind of assay: APEX2-Gal9 proximity biotinylation, SILAC LC-MS/MS, GPN; third of three experiments.
Assay [3] shares this target. Kind of assay: APEX2-Gal9 proximity biotinylation, SILAC LC-MS/MS, GPN; second of three experiments.
The target is the same in assay [4]. Kind of assay: APEX2-Gal9 proximity biotinylation, SILAC LC-MS/MS, LLOMe; first of three experiments.
Assay [5] has the same target. Kind of assay: APEX2-Gal9 proximity biotinylation, SILAC LC-MS/MS, LLOMe; third of three experiments.
Assay [6] has the same target. Kind of assay: APEX2-Gal9 proximity biotinylation, SILAC LC-MS/MS, LLOMe; second of three experiments.

Peptide counts (peptide counts) data for 1 substance are collected here from patent US20210205286A1.

USP7 (endogenous), sequence (Q93009 whole entry): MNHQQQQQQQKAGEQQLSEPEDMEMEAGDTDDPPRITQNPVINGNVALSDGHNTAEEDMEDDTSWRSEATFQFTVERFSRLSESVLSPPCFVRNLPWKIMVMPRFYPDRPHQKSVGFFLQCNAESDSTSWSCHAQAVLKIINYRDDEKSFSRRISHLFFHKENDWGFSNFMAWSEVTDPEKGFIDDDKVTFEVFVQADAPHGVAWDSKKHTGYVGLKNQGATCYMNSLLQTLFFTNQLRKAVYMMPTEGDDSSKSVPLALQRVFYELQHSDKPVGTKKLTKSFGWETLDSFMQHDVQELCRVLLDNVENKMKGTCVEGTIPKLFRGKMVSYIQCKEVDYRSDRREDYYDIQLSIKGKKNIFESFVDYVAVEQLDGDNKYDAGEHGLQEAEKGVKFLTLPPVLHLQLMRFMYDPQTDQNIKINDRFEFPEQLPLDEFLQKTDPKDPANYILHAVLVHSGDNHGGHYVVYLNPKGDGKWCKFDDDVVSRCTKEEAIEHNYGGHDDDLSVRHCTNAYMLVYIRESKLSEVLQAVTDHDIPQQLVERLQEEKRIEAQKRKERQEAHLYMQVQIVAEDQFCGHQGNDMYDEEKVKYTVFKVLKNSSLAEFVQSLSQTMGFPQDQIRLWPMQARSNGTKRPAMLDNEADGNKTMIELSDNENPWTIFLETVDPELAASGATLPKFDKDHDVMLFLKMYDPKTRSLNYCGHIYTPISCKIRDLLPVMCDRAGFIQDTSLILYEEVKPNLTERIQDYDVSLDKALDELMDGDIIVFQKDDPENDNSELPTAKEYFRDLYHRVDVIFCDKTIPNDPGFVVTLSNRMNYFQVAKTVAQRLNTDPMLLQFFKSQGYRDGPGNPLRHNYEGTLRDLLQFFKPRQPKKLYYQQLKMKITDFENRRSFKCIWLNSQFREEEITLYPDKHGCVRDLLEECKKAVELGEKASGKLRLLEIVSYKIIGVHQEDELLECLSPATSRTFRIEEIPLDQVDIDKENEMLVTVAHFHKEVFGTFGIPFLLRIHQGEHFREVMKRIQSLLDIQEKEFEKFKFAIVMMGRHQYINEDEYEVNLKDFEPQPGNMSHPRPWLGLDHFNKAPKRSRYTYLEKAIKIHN

Regarding “APEX2-myc-Gal9 (from UniProt O00182 1-323)”, the peptide counts (peptide counts) is 3 in the assay with USP7 (endogenous) [1]; 3 with USP7 (endogenous) [2]; 4 with USP7 (endogenous) [3]; 2 with USP7 (endogenous) [4]; 2 in the assay with USP7 (endogenous) [5]; 3 in the assay with USP7 (endogenous) [6].
